B1: NEK8 (parent)
chain: VVGTPCYISPELCEGKPYNQKSDI

Protein stability index data for 94 variants are collected here from the supplement of paper PMC10567573.
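Note: lentivirally expressed fusions sorted by FACS into six bins by GFP to DsRed ratio, PSI derived from sequencing read proportions per bin multiplied by bin number.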

In this series the parent is B1. The experiment in a line: protein stability index of a GFP-peptide fusion (GPS, HEK-293T) (PSI 1-6); higher = more stable. The settings on record: c terminus: a fixed tail appended.
Regarding VVGTPCGISPELCEGKPYNQKSDI [Y7G], the protein stability index stood at 3.98.
Turning to VVGTPCQISPELCEGKPYNQKSDI [Y7Q], the protein stability index was determined as 4.35.
VVGTPCDISPELCEGKPYNQKSDI [Y7D]: the protein stability index is 4.69.
Consider VVGTPCSISPELCEGKPYNQKSDI [Y7S], for which the protein stability index was determined as 3.69.
VVGTPCEISPELCEGKPYNQKSDI [Y7E]: the protein stability index is 4.5.
Turning to VVGTPCFISPELCEGKPYNQKSDI [Y7F], the protein stability index was 3.05.
To VVGTPCLISPELCEGKPYNQKSDI [Y7L] belongs 3.83; to VVGTPCMISPELCEGKPYNQKSDI [Y7M], 3.97; to VVGTPCAISPELCEGKPYNQKSDI [Y7A], 3.94.
The result for VVGTPCWISPELCEGKPYNQKSDI [Y7W] reads 2.82; that for VVGTPCNISPELCEGKPYNQKSDI [Y7N], 4.52.
The result for VVGTPCIISPELCEGKPYNQKSDI [Y7I] reads 4.08; that for VVGTPCHISPELCEGKPYNQKSDI [Y7H], 3.87; that for VVGTPCCISPELCEGKPYNQKSDI [Y7C], 4.16.
As to VVGTPCKISPELCEGKPYNQKSDI [Y7K], the protein stability index amounted to 3.92.
VVGTPCPISPELCEGKPYNQKSDI [Y7P]: the protein stability index came to 4.16.
Consider VVGTPCRISPELCEGKPYNQKSDI [Y7R], for which the protein stability index turned out to be 3.96.
To VVGTPCTISPELCEGKPYNQKSDI [Y7T] belongs 4.36; to VVGTPIYISPELCEGKPYNQKSDI [C6I], 3.07; to VVGTPRYISPELCEGKPYNQKSDI [C6R], 3.88.
Take VVGTPTYISPELCEGKPYNQKSDI [C6T]: the protein stability index came out at 3.26.
The result for VVGTPVYISPELCEGKPYNQKSDI [C6V] reads 2.71; that for VVGTPWYISPELCEGKPYNQKSDI [C6W], 2.5.
Turning to VVGTPLYISPELCEGKPYNQKSDI [C6L], the protein stability index amounted to 3.25.
On to VVGTPSYISPELCEGKPYNQKSDI [C6S], for which the protein stability index was 3.08.
To VVGTPYYISPELCEGKPYNQKSDI [C6Y] belongs 2.02; to VVGTPHYISPELCEGKPYNQKSDI [C6H], 2.47.
Consider VVGTPQYISPELCEGKPYNQKSDI [C6Q], for which the protein stability index was 4.11.
In the case of VVGTPPYISPELCEGKPYNQKSDI [C6P], the protein stability index amounted to 3.38.
To VVGTPGYISPELCEGKPYNQKSDI [C6G] belongs 3.39; to VVGTPEYISPELCEGKPYNQKSDI [C6E], 4.34; to VVGTPAYISPELCEGKPYNQKSDI [C6A], 2.81.
The result for VVGTPNYISPELCEGKPYNQKSDI [C6N] reads 2.38; that for VVGTPKYISPELCEGKPYNQKSDI [C6K], 3.48.
On to VVGTPMYISPELCEGKPYNQKSDI [C6M], for which the protein stability index was 3.56.
The result for VVGTPDYISPELCEGKPYNQKSDI [C6D] reads 4.4; that for VVGTPFYISPELCEGKPYNQKSDI [C6F], 2.14.
As for VVGTFCYISPELCEGKPYNQKSDI [P5F], the protein stability index was found to be 1.16.
For the variant VVGTTCYISPELCEGKPYNQKSDI [P5T], the protein stability index was 3.32.
The result for VVGTNCYISPELCEGKPYNQKSDI [P5N] reads 3.21; that for VVGTRCYISPELCEGKPYNQKSDI [P5R], 2.76; that for VVGTLCYISPELCEGKPYNQKSDI [P5L], 2.28.
As for VVGTICYISPELCEGKPYNQKSDI [P5I], the protein stability index worked out at 1.64.
The result for VVGTYCYISPELCEGKPYNQKSDI [P5Y] reads 2.06; that for VVGTSCYISPELCEGKPYNQKSDI [P5S], 3.36; that for VVGTACYISPELCEGKPYNQKSDI [P5A], 3.05.
For VVGTMCYISPELCEGKPYNQKSDI [P5M], the protein stability index is 2.75.
On to VVGTDCYISPELCEGKPYNQKSDI [P5D], for which the protein stability index turned out to be 2.98.
Take VVGTWCYISPELCEGKPYNQKSDI [P5W]: the protein stability index came to 1.66.
The result for VVGTVCYISPELCEGKPYNQKSDI [P5V] reads 1.89; that for VVGTQCYISPELCEGKPYNQKSDI [P5Q], 3.62; that for VVGTGCYISPELCEGKPYNQKSDI [P5G], 3.27.
To VVGTHCYISPELCEGKPYNQKSDI [P5H] belongs 3.14; to VVGTKCYISPELCEGKPYNQKSDI [P5K], 3.18; to VVGTCCYISPELCEGKPYNQKSDI [P5C], 2.56.
To VVGTECYISPELCEGKPYNQKSDI [P5E] belongs 3.53; to VVGTPCYISPEYCEGKPYNQKSDI [L12Y], 2.27; to VVGTPCYISPERCEGKPYNQKSDI [L12R], 3.35.
Consider VVGTPCYISPEECEGKPYNQKSDI [L12E], for which the protein stability index stood at 4.11.
With VVGTPCYISPEMCEGKPYNQKSDI [L12M], the protein stability index is 2.76.
To VVGTPCYISPEWCEGKPYNQKSDI [L12W] belongs 1.83; to VVGTPCYISPEACEGKPYNQKSDI [L12A], 3.1.
The result for VVGTPCYISPEICEGKPYNQKSDI [L12I] reads 2.93; that for VVGTPCYISPENCEGKPYNQKSDI [L12N], 3.62.
The result for VVGTPCYISPEHCEGKPYNQKSDI [L12H] reads 3.59; that for VVGTPCYISPEDCEGKPYNQKSDI [L12D], 3.4.
On to VVGTPCYISPEKCEGKPYNQKSDI [L12K], for which the protein stability index came to 3.69.
Take VVGTPCYISPEVCEGKPYNQKSDI [L12V]: the protein stability index was determined as 2.83.
To VVGTPCYISPEFCEGKPYNQKSDI [L12F] belongs 2.15; to VVGTPCYISPEPCEGKPYNQKSDI [L12P], 3.6.
To VVGTPCYISPETCEGKPYNQKSDI [L12T] belongs 3.15; to VVGTPCYISPEGCEGKPYNQKSDI [L12G], 4.29; to VVGTPCYISPEQCEGKPYNQKSDI [L12Q], 2.71.
For VVGTPCYISPECCEGKPYNQKSDI [L12C], the protein stability index was 3.29.
The result for VVGTPCYISPESCEGKPYNQKSDI [L12S] reads 3.15.
To VVGTPCYIYPELCEGKPYNQKSDI [S9Y] belongs 1.55; to VVGTPCYIDPELCEGKPYNQKSDI [S9D], 3.44; to VVGTPCYIIPELCEGKPYNQKSDI [S9I], 2.32.
VVGTPCYIVPELCEGKPYNQKSDI [S9V]: the protein stability index was 2.31.
As for VVGTPCYIPPELCEGKPYNQKSDI [S9P], the protein stability index amounted to 3.58.
The result for VVGTPCYIHPELCEGKPYNQKSDI [S9H] reads 2.04.
The result for VVGTPCYITPELCEGKPYNQKSDI [S9T] reads 2.61.
Consider VVGTPCYIEPELCEGKPYNQKSDI [S9E], for which the protein stability index stood at 3.16.
The result for VVGTPCYIGPELCEGKPYNQKSDI [S9G] reads 2.99; that for VVGTPCYIKPELCEGKPYNQKSDI [S9K], 3.61.
To VVGTPCYIQPELCEGKPYNQKSDI [S9Q] belongs 2.62.
To VVGTPCYIRPELCEGKPYNQKSDI [S9R] belongs 2.48; to VVGTPCYIFPELCEGKPYNQKSDI [S9F], 1.96.
As for VVGTPCYIWPELCEGKPYNQKSDI [S9W], the protein stability index is 2.25.
Consider VVGTPCYINPELCEGKPYNQKSDI [S9N], for which the protein stability index is 2.31.
To VVGTPCYIAPELCEGKPYNQKSDI [S9A] belongs 2.45; to VVGTPCYIMPELCEGKPYNQKSDI [S9M], 2.4; to VVGTPCYICPELCEGKPYNQKSDI [S9C], 1.94.
Consider VVGTPCYILPELCEGKPYNQKSDI [S9L], for which the protein stability index was determined as 1.68.
